According to the nanobody polyreactivity screen of Harvey et al. (2022):

Experiment: yeast display, Sf9 membrane polyspecificity reagent, FACS + sequencing; frameworks hold sequencing errors
Procedure, shortened: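 Nanobodies came from a synthetic yeast display library in Saccharomyces cerevisiae BJ5465, induced with galactose for 36–48 hours and stained for 1 hour at 4 °C with 10% biotinylated, detergent-solubilized Sf9 membrane reagent. Cells were enriched on streptavidin microbeads and then FACS-sorted, with low and high (top ~1%) gates set on anti-HA fluorescence for expression and streptavidin fluorescence for reagent binding. Each polyreactivity label reflects the gate a clone came from. Genes were amplified by colony PCR, sequenced by MiSeq 2 × 250 and filtered by CDR length.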

Sequence | polyreactivity (PSR sort gate)
QVQLVESGGVLVQAGGRLRLSCAASGLTFNENVMGWYRQAPGKERELVAAISTGASTYYADSVKGRFTISRDNAKNTVYLQMNSLKPEDTAVYYCAKRVNRWYGYWGQGTQVTVSS | high polyreactivity
QVQLVESGGVLVQAGGSLPLSCAASGRILARNAMGWYRQAPGNERELVAAITSSTDSTYYADSVKGRFTISRDNAKNTVYLQMNSLKPEDTAVYYCATVVRLYRGRYSYDYWGQGTQVTVSS | high polyreactivity
QVQLVESGGVLVQAGGSLRLICAASVRNFSTNSMGWYRQAPGKERELVASISFRGGRTYYADSVKGRFTISRDNAKNTVYLQMNSRKPEDNAVYYCVSGTKRTGYGYWGQGTQVTVSS | high polyreactivity
QVQLVESGGVLVQAGGSLRLRCAASVRNYNSYMGWYRPAPGKERELVAAISWSSGTSTYYADSVKGRFTISRDNAKNTVYLQMNSLKPEDTEVYYCNAVDYFGPYPEEYDYWGQGTQVTVSS | low polyreactivity
QVQLVESGGVLVQAGGSLRLSCAAMGWYRQAPGKERELVATITWSGGSTYYADSVKGRFTISRDNAKNTVYLQMNSLKPEDTAVYYCNSRATLLSPANTIRGYDYWGQGTQVTVSS | low polyreactivity
QVQLVESGGVLVQAGGSLRLSCAASGRIFDIYAMGWYRQAPGKERELVAGITWRAGSTYYADSVKGRFTISRDNAKNTVYLQMNSLKPEDSAVYFCARDYSRHKGDYWGQGTQVTVSS | low polyreactivity
QVQLVESGGVLVQAGGSLRLSCAASGRIFLEYAMGWYRQAPGKERELVAAISRGGGRTYYADSVKGRFTISRDNAKNTVYLLMNSLKPEDTAVYYCAAGLAKGYWASFAYRYDYWGQGTQVTVSS | high polyreactivity
QVQLVESGGVLVQAGGSLRLSCAASGRIFWGYAMGWYRQAPGKERELVARLTSGGDTYYADSVKGRFTISRDNAKNTVDLQMNSLKPEDTAVYYCAKSTAVKPYAYRESGFIYDYRGQGTQVTVSS | low polyreactivity
QVQLVESGGVLVQAGGSLRLSCAASGRTFDSYAMGWYRQAPGKERELVAAISSRGTRTYYADSVKWRFTISRDNAKNTVYLQMNSLKPEDTAVYYCNAGGAYEYDYWGQGTQVTVSS | high polyreactivity
QVQLVESGGVLVQAGGSLRLSCAASGRTFYGYSMGWYRQAAGKEREFVSDITYSGGRTYYADSVKGRFTISRDNAKNTVYLQMYSLKPEDTAVYYCNAYYYYVNQGRYEYGYWGQGTQVTVSS | high polyreactivity
QVQLVESGGVLVQAGGSLRLSCAASGRTFYYYAMGWYRQAPGKEREFVAVISGSGANTFYADSVKGRFTISRDNAKNTVYLQMNSLKPEDTAVYYCAARSWEGYGYWGQGTQVTVSS | high polyreactivity
QVQLVESGGVLVQAGGSLRLSCAASGRTLFHYAMGWDRQAPGKERELVAAIRNSDGSTYYADSVKGRFTISRDNAKNTVYLQMNSLKPEDTAVYYCAAKYKYRTNNYWGQGTQVTVSS | high polyreactivity
QVQLVESGGVLVQAGGSLRLSCAASGSIFGYNVMGRYRQAPGKERELVAAITYSGGSTYYADSVKGRFTISRDNAKNTVYLQMNSLKPEDTAVYYCAKVTGRRFPAYGYDHWGQGTQLTVSS | high polyreactivity
QVQLVESGGVLVQAGGSLRLSCAASGSIFYYNAMGWYRQAPGKERELVATITGGNGTYYADSVKGRFTISRDNAKNTVYLQMNSLKPEVTAVYYCARDTDPQSSRSSDYDYWGQGTQVTVSS | low polyreactivity
QVQLVESGGVLVQAGGSLRLSCAASGSILHDYAMGWYRQAPGKERELVASINWSGGRTYYADSVKGRFTISRDNAKNTVYLQRNRLTPEDTAVYYCSADPSWLHVSHAPTFGLDYWGQGSQVTVSS | high polyreactivity
QVQLVESGGVLVQAGGSLRLSCAASGSIYRYYAMGWYRQAPGKERELVAAISWRGGSTYYADSVKGRFTISRDNAKNPVYLQMNSLKPEDTAVYYCAAELWVGTYGEYDYWGQGTQVTVSS | low polyreactivity

Sequence | polyreactivity (PSR sort gate)
QVQLVESGGVLVQAGGSLRLSCAASGSTFLWYAMGWYRQAPGKEREMVAAISRSGGNTYYADSVKGRFTISRDNAKTSVYLEMNSLNPEDTAVYDCAARKLYGSPEHGYGGQGTQVTVSS | high polyreactivity
QVQLVESGGVLVQAGGSLRLSCAASGSTFNSYVMGWYRQAPGKEREFVAAISWSGVRTYYADSVKGRFTISRDNAKNTVYLQMNSLKPEDTAVYYCAVRSGRRNYVRPAFGYWGQGTQVTVSS | high polyreactivity
QVQLVESGGVLVQAGGSLRLSCAASGSTFVYNAMGWYRQAPGKESEFVAAISGSGGSTYYADSVKGRFTISRDIAKNTVYLQMNSLKPDDTAVYYCATAGRYGRYRTYPYRSKYDYWGQGTQVTVSS | high polyreactivity
QVQLVESGGVLVQAGGSLRLSCAATGYIFHLYGMGWYRQAPGKERELVARITYRRGSTYYADSVKGRFTISRDNAKNTVYLQMNSLKPEDTAVYYCAKRRGYGYNYWGQGTQVTVSS | high polyreactivity
QVQLVESGGVLVQAGGSLRLSCADSGRTFYTNAMGWYRQAPGKERELVAAITGSDGNTYYADSVKGRFTISRENAKNTVYLQMISLKAEDTAVYYGFDYWVQGTQVTVSS | low polyreactivity
QVQLVESGGVLVQAGGSLRLSCADSGSIFILYAMGWYRHAPGKESEFVAAITYRGGSTKYADSVKGRFTISRDNAKNTVYLQMNRLKPEDTAVYYCAAGGYWRSPCGSVSRYGYWGQGTQVTVSS | high polyreactivity
QVQLVESGGVLVQAGGSLRLSSAASGRTFFRYTMGWYRQAPGKERELVAAISRSDGTTYYADSVKGRFTISRDSAKNTVYLEMNSLKPEDTAVYYCAKSLPSGYYYWGQGTQVTVSS | low polyreactivity
QVQLVESGGVLVQAGGSLRLTCAASGRTFGHYAMGWYRQAPGKERELVAANTSSAGRTRYADSVKGRFTISRDYAKNTVYLQMNSLKPEDTAVYYCAVAEGYSPAYLRDYWGQGTQVTVSS | high polyreactivity
QVQLVESGGVLVQAGGSLRLTCAASGSILYLNAMGWYRQAPGKERELVAAITWSGGSTSYADSVKGRFTISRDNAKYTVSLQMNSLKPEDTAVYYCASGRRGYGGVYYAGGYWGQGTQVTVSS | low polyreactivity
QVQLVESGGVLVQAGGTLRFSCAPSGLTFVYYTMRWYRQAPGQEREFVAGIDWSGGSTYYADSVKGRFTISRDNAKNTVYLHMNSLKPEDTAVYYCAAAVYYQYCVYRHDYWGKGTQVTVSS | low polyreactivity
QVQLVESGGVLVQDGGSLRLSCAASGRIFGHYAMGWYRQAPGKERELVAAISWSGGSTYYADSVKARFTISRDNAKNTVYLQMKSLKPEDTAVYDCNTGRVRYQGVRYDYWGQGTQVTVSS | high polyreactivity
QVQLVESGGVLVQEGGSLRLICAASGSIFGYYVMGWYRQAPGKERELVAAISRSGGSTYYADSVKGLFTISRDNAKTTVYLQMNSLKQEDTAVYYCAASFAVRYPRLDYWGQGTQVTVSS | high polyreactivity
QVQLVESGGVLVQEGGSLRLSCDASGSIFECYAMGWYRQAPGKARELVAYITYNGGSTYYADSVKGRFTISRHNAKKTVYLQMNSLKPEDSAVYYCAAVYFVQVPDYYYASEYGYWGQGTQVTVSS | low polyreactivity
QVQLVESGLGLVQAAGSLRLSCAASGSILYSYAMGWYRQAPGKERELFAAITGAGASTNYADSVKGRFTISRDNGKNTVYLQMNSLKPEDTAVYYCNAEYNPYHYYKAWVYTYDYGYWGQGTQVTVSS | low polyreactivity
QVQLVESGLGLVQAGGSLRISCAASGLTIYYYAMGWYRQAPGKERELVAAITWRGGSTYYADSVKGRFTISRDNAKNTVYLQMNSLKPEDTAVYYCNKAYKYIRQQPYRTKRYDYWGQGTQGTVSS | low polyreactivity
